Measurements from US20230174669A1 (ALIADA THERAPEUTICS, published 2023).

T1: human CD98hc (human, UniProt P08195 105-529)
T1 construct: Soluble protein flowed over captured tripod mAbs in SPR; also called huCD98hc; human CD98 heavy chain
T1 sequence: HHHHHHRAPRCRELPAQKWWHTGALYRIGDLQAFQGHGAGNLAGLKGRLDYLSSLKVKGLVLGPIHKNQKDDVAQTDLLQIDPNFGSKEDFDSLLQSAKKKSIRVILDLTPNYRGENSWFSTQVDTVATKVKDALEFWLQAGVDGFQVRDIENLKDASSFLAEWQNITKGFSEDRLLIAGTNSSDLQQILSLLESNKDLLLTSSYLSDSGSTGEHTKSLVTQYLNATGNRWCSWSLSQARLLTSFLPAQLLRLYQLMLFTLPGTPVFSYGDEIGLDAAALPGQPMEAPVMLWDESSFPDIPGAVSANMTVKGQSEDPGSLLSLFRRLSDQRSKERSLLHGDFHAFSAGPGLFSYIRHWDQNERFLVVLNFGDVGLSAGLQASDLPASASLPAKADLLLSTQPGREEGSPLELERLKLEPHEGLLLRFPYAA


biological target: T1, human CD98hc; assay: SPR ProteOn, anti-Tau tripod mAb captured by anti-Fc, huCD98hc flowed

Binder	Kd [nM]	koff [s⁻¹]	kon [M⁻¹ s⁻¹]
BBBB1067 (bispecific antibody, also called tripod mAb Anti-Tau IgG1 AAS YTE with C98hc4) heavy 1: EVQLVESGGGLVKPGGSLRLSCAASGFTFSSYAMSWVRQAPGKGLEWVASISKGGNTYYPDSVKGRFTISRDNAKNSLYLQMNSLRAEDTAVYYCARGWGDYGWFAYWGQVTLVTVSSASTKGPSVFPLAPSSKSTSGGTAALGCLVKDYFPEPVTVSWNSGALTSGVHTFPAVLQSSGLYSLSSVVTVPSSSLGTQTYICNVNHKPSNTKVDKKVEPKSCDKTHTCPPCPAPEAAGGPSVFLFPPKPKDTLYITREPEVTCVVVSVSHEDPEVKFNWYVDGVEVHNAKTKPREEQYNSTYRVVSVLTVLHQDWLNGKEYKCKVSNKALPAPIEKTISKAKGQPREPQVYVYPPSREEMTKNQVSLTCLVKGFYPSDIAVEWESNGQPENNYKTTPPVLDSDGSFALVSKLTVDKSRWQQGNVFSCSVMHEALHNHYTQKSLSLSPGGGAGGAQVQLVESGGGVVQPGRSLRLSCAASGFTFSSYGMHWVRQAPGKGLEWVAIISYDGSNKHYADSVKGRFTISRDNSKNTLYLQMNSLRAEDTAVYYCARAPSSFYFDYWGQGTLVTVSSGTEGKSSGSGSESKSTDIVMTQSPDSLAVSLGERATINCKSSQSVLFSSNNKNYLAWYQQKPGQPPKLLIYWASTRESGVPDRFSGSGSGTDFTLTISSLQAEDVAVYYCQQYYSTPPTFGQGTKVVIK light: DIQMTQSPSSLSASVGDRVTITCKASQDINRYLNWFQQKPGKAPKTLIYRANRLLDGVPSRFSGSGSGTDFTLTISSLQPEDFATYYCQQYDEFPLTFGQGTKLEIKRTVAAPSVFIFPPSDEQLKSGTASVVCLLNNFYPREAKVQWKVDNALQSGNSQESVTEQDSKDSTYSLSSTLTLSKADYEKHKVYACEVTHQGLSSPVTKSFNRGEC heavy 2: EVQLVESGGGLVKPGGSLRLSCAASGFTFSSYAMSWVRQAPGKGLEWVASISKGGNTYYPDSVKGRFTISRDNAKNSLYLQMNSLRAEDTAVYYCARGWGDYGWFAYWGQVTLVTVSSASTKGPSVFPLAPSSKSTSGGTAALGCLVKDYFPEPVTVSWNSGALTSGVHTFPAVLQSSGLYSLSSVVTVPSSSLGTQTYICNVNHKPSNTKVDKKVEPKSCDKTHTCPPCPAPEAAGGPSVFLFPPKPKDTLYITREPEVTCVVVSVSHEDPEVKFNWYVDGVEVHNAKTKPREEQYNSTYRVVSVLTVLHQDWLNGKEYKCKVSNKALPAPIEKTISKAKGQPREPQVYVLPPSREEMTKNQVSLLCLVKGFYPSDIAVEWESNGQPENNYLTWPPVLDSDGSFFLYSKLTVDKSRWQQGNVFSCSVMHEALHNHYTQKSLSLSPG	3.15	0.00138	439000
BBBB1070 (bispecific antibody, human IgG1, kappa, L234A L235A, also called tripod mAb Anti-Tau IgG1 AAS YTE with C98hc5) heavy 1: EVQLVESGGGLVKPGGSLRLSCAASGFTFSSYAMSWVRQAPGKGLEWVASISKGGNTYYPDSVKGRFTISRDNAKNSLYLQMNSLRAEDTAVYYCARGWGDYGWFAYWGQVTLVTVSSASTKGPSVFPLAPSSKSTSGGTAALGCLVKDYFPEPVTVSWNSGALTSGVHTFPAVLQSSGLYSLSSVVTVPSSSLGTQTYICNVNHKPSNTKVDKKVEPKSCDKTHTCPPCPAPEAAGGPSVFLFPPKPKDTLYITREPEVTCVVVSVSHEDPEVKFNWYVDGVEVHNAKTKPREEQYNSTYRVVSVLTVLHQDWLNGKEYKCKVSNKALPAPIEKTISKAKGQPREPQVYVYPPSREEMTKNQVSLTCLVKGFYPSDIAVEWESNGQPENNYKTTPPVLDSDGSFALVSKLTVDKSRWQQGNVFSCSVMHEALHNHYTQKSLSLSPGGGAGGAQVQLQESGPGLVKPSETLSLTCTVSGGSISSSYWSWIRQPPGKGLEWIGYIYNSGSTNYNPSLKSRVTISVDTSKNQFSLKLSSVTAADTAVYYCARETYYFDYWGQGTLVTVSSGTEGKSSGSGSESKSTDIVMTQSQKFMSTSVGDRVSVTCKASQNVGINVAWYQKKPGQPPKALIYSAAYRYSGVPDRFTGSGSGTDFTLTISNVQSEDLAEYFCQQYNSYPLTFGSGTKLEIK light: DIQMTQSPSSLSASVGDRVTITCKASQDINRYLNWFQQKPGKAPKTLIYRANRLLDGVPSRFSGSGSGTDFTLTISSLQPEDFATYYCQQYDEFPLTFGQGTKLEIKRTVAAPSVFIFPPSDEQLKSGTASVVCLLNNFYPREAKVQWKVDNALQSGNSQESVTEQDSKDSTYSLSSTLTLSKADYEKHKVYACEVTHQGLSSPVTKSFNRGEC heavy 2: EVQLVESGGGLVKPGGSLRLSCAASGFTFSSYAMSWVRQAPGKGLEWVASISKGGNTYYPDSVKGRFTISRDNAKNSLYLQMNSLRAEDTAVYYCARGWGDYGWFAYWGQVTLVTVSSASTKGPSVFPLAPSSKSTSGGTAALGCLVKDYFPEPVTVSWNSGALTSGVHTFPAVLQSSGLYSLSSVVTVPSSSLGTQTYICNVNHKPSNTKVDKKVEPKSCDKTHTCPPCPAPEAAGGPSVFLFPPKPKDTLYITREPEVTCVVVSVSHEDPEVKFNWYVDGVEVHNAKTKPREEQYNSTYRVVSVLTVLHQDWLNGKEYKCKVSNKALPAPIEKTISKAKGQPREPQVYVLPPSREEMTKNQVSLLCLVKGFYPSDIAVEWESNGQPENNYLTWPPVLDSDGSFFLYSKLTVDKSRWQQGNVFSCSVMHEALHNHYTQKSLSLSPG	118	0.00648	55700
BBBB1061 (bispecific antibody, human IgG1, kappa, L234A L235A, also called tripod mAb Anti-Tau IgG1 AAS YTE with C98hc2) heavy 1: EVQLVESGGGLVKPGGSLRLSCAASGFTFSSYAMSWVRQAPGKGLEWVASISKGGNTYYPDSVKGRFTISRDNAKNSLYLQMNSLRAEDTAVYYCARGWGDYGWFAYWGQVTLVTVSSASTKGPSVFPLAPSSKSTSGGTAALGCLVKDYFPEPVTVSWNSGALTSGVHTFPAVLQSSGLYSLSSVVTVPSSSLGTQTYICNVNHKPSNTKVDKKVEPKSCDKTHTCPPCPAPEAAGGPSVFLFPPKPKDTLYITREPEVTCVVVSVSHEDPEVKFNWYVDGVEVHNAKTKPREEQYNSTYRVVSVLTVLHQDWLNGKEYKCKVSNKALPAPIEKTISKAKGQPREPQVYVYPPSREEMTKNQVSLTCLVKGFYPSDIAVEWESNGQPENNYKTTPPVLDSDGSFALVSKLTVDKSRWQQGNVFSCSVMHEALHNHYTQKSLSLSPGGGAGGAQVQLVESGGGLVQAGGSLRLSCAASGRAFSSNGMGWFRQAPGKEREFVATISCSGTSTYYADSVKGRFTISRDNAKNTVYLQMNSLKPEDTAVYFCAADTRHCMGYTKDEGYAYWGQGTQVTVSS light: DIQMTQSPSSLSASVGDRVTITCKASQDINRYLNWFQQKPGKAPKTLIYRANRLLDGVPSRFSGSGSGTDFTLTISSLQPEDFATYYCQQYDEFPLTFGQGTKLEIKRTVAAPSVFIFPPSDEQLKSGTASVVCLLNNFYPREAKVQWKVDNALQSGNSQESVTEQDSKDSTYSLSSTLTLSKADYEKHKVYACEVTHQGLSSPVTKSFNRGEC heavy 2: EVQLVESGGGLVKPGGSLRLSCAASGFTFSSYAMSWVRQAPGKGLEWVASISKGGNTYYPDSVKGRFTISRDNAKNSLYLQMNSLRAEDTAVYYCARGWGDYGWFAYWGQVTLVTVSSASTKGPSVFPLAPSSKSTSGGTAALGCLVKDYFPEPVTVSWNSGALTSGVHTFPAVLQSSGLYSLSSVVTVPSSSLGTQTYICNVNHKPSNTKVDKKVEPKSCDKTHTCPPCPAPEAAGGPSVFLFPPKPKDTLYITREPEVTCVVVSVSHEDPEVKFNWYVDGVEVHNAKTKPREEQYNSTYRVVSVLTVLHQDWLNGKEYKCKVSNKALPAPIEKTISKAKGQPREPQVYVLPPSREEMTKNQVSLLCLVKGFYPSDIAVEWESNGQPENNYLTWPPVLDSDGSFFLYSKLTVDKSRWQQGNVFSCSVMHEALHNHYTQKSLSLSPG	1.46	0.00135	935000
BBBB1065 (bispecific antibody, also called tripod mAb Anti-Tau IgG1 with C98hc4) heavy 1: EVQLVESGGGLVKPGGSLRLSCAASGFTFSSYAMSWVRQAPGKGLEWVASISKGGNTYYPDSVKGRFTISRDNAKNSLYLQMNSLRAEDTAVYYCARGWGDYGWFAYWGQVTLVTVSSASTKGPSVFPLAPSSKSTSGGTAALGCLVKDYFPEPVTVSWNSGALTSGVHTFPAVLQSSGLYSLSSVVTVPSSSLGTQTYICNVNHKPSNTKVDKKVEPKSCDKTHTCPPCPAPELLGGPSVFLFPPKPKDTLMISRTPEVTCVVVDVSHEDPEVKFNWYVDGVEVHNAKTKPREEQYNSTYRVVSVLTVLHQDWLNGKEYKCKVSNKALPAPIEKTISKAKGQPREPQVYVYPPSREEMTKNQVSLTCLVKGFYPSDIAVEWESNGQPENNYKTTPPVLDSDGSFALVSKLTVDKSRWQQGNVFSCSVMHEALHNHYTQKSLSLSPGGGAGGAQVQLVESGGGVVQPGRSLRLSCAASGFTFSSYGMHWVRQAPGKGLEWVAIISYDGSNKHYADSVKGRFTISRDNSKNTLYLQMNSLRAEDTAVYYCARAPSSFYFDYWGQGTLVTVSSGTEGKSSGSGSESKSTDIVMTQSPDSLAVSLGERATINCKSSQSVLFSSNNKNYLAWYQQKPGQPPKLLIYWASTRESGVPDRFSGSGSGTDFTLTISSLQAEDVAVYYCQQYYSTPPTFGQGTKVVIK light: DIQMTQSPSSLSASVGDRVTITCKASQDINRYLNWFQQKPGKAPKTLIYRANRLLDGVPSRFSGSGSGTDFTLTISSLQPEDFATYYCQQYDEFPLTFGQGTKLEIKRTVAAPSVFIFPPSDEQLKSGTASVVCLLNNFYPREAKVQWKVDNALQSGNSQESVTEQDSKDSTYSLSSTLTLSKADYEKHKVYACEVTHQGLSSPVTKSFNRGEC heavy 2: EVQLVESGGGLVKPGGSLRLSCAASGFTFSSYAMSWVRQAPGKGLEWVASISKGGNTYYPDSVKGRFTISRDNAKNSLYLQMNSLRAEDTAVYYCARGWGDYGWFAYWGQVTLVTVSSASTKGPSVFPLAPSSKSTSGGTAALGCLVKDYFPEPVTVSWNSGALTSGVHTFPAVLQSSGLYSLSSVVTVPSSSLGTQTYICNVNHKPSNTKVDKKVEPKSCDKTHTCPPCPAPELLGGPSVFLFPPKPKDTLMISRTPEVTCVVVDVSHEDPEVKFNWYVDGVEVHNAKTKPREEQYNSTYRVVSVLTVLHQDWLNGKEYKCKVSNKALPAPIEKTISKAKGQPREPQVYVLPPSREEMTKNQVSLLCLVKGFYPSDIAVEWESNGQPENNYLTWPPVLDSDGSFFLYSKLTVDKSRWQQGNVFSCSVMHEALHNHYTQKSLSLSPG	2.96	0.00139	470000
